This note sets out measurements from patent US20240336672A1.

Where a chain is given by its changes, count along the chain named. Where only a bound is given, the exact number is not on record here.

Conditions in all cases: remark: other sources report otherwise
Test [1] deals with SARS-CoV-2 RBD domain, Wuhan (SARS-CoV-2). Nature of the test: ELISA. Further details: unit not given beside the values. (An ELISA detects its analyte on a solid surface through an enzyme-linked reagent.)
In test [2] the target is CoV-MERS Spike ectodomain (MERS-CoV), K9N5Q8. Briefly: ELISA, coated antigen.
Test [3] deals with SARS-CoV-1 Spike ectodomain (SARS-CoV-1), P59594. Nature of the test: ELISA, coated antigen.
For test [4], the target named is SARS-CoV-2 RBD domain, Wuhan (SARS-CoV-2). Briefly: ELISA, coated antigen.
The target in test [5] is T1, SARS-CoV-2 Spike (S) protein on cells (S-Flow assay) (SARS-CoV-2), P0DTC2. Nature of the test: flow cytometry, transfected cells.
Test [6] addresses SARS-CoV-2 RBD domain, Wuhan (SARS-CoV-2). Briefly: SPR (Biacore), antibody immobilised.
Test [7] has the same target. Nature of the test: RBD-ACE2 competition ELISA. Details: unit not given beside the values.
For test [8] the target is unchanged. Briefly: RBD-ACE2 competition ELISA. Details: unit not given beside the values. The source holds these as a separate data set.
The target in test [9] is T1, SARS-CoV-2 Spike (S) protein on cells …. Briefly: S-Flow flow cytometry, spike-expressing cells. A general note: A flow cytometer gives signals particle by particle.
For test [10], the target named is SARS-CoV-2 RBD domain, Wuhan (SARS-CoV-2). Nature of the test: competition ELISA vs bio-Cv2.1169.
The target is the same in test [11]. Briefly: competition ELISA vs bio-Cv2.1353.
The target is the same in test [12]. Briefly: competition ELISA vs bio-Cv2.3194.
For test [13] the target is unchanged. Briefly: competition ELISA vs bio-Cv2.3235.
The target is the same in test [14]. Nature of the test: competition ELISA vs bio-Cv2.5213.
Test [15] has the same target. Nature of the test: ELISA. Details: unit not given beside the values. This is another data set of the same source.
For test [16] the target is unchanged. Nature of the test: RBD/ACE2 blocking ELISA.
Test [17] has the same target. Briefly: ELISA.
The target in test [18] is T1, SARS-CoV-2 Spike (S) protein on cells …. Nature of the test: flow cytometry (Mock 2.5).
Test [19] has as its target SARS-CoV-2 RBD domain, Wuhan (SARS-CoV-2). Nature of the test: ELISA. Details: unit not given beside the values. This is another data set of the same source.
Test [20] shares this target. Nature of the test: SPR (Biacore), antibody coupled to CM5 chip, viral protein as analyte.
For % inhibition (competition) in this document: test concentration or dose not given here.

B1: Cv2.5213 (recombinant human IgG1) (antibody)
heavy: EVQLVESGGGLIQPGGSLRLSCAASGFTVSSNYMSWVRQAPGKGLEWVSLIYSGGSTYYADSVKGRFTISRDNSKNTLYLQMNSLRAEDTAVYYCARDLNYYGMDVWGQGATVTVSSASTKGPSVFPLAPSSKSTSGGTAALGCLVKDYFPEPVTVSWNSGALTSGVHTFPAVLQSSGLYSLSSVVTVPSSSLGTQTYICNVNHKPSNTKVDKKVEPKSCDKTHTCPPCPAPELLGGPSVFLFPPKPKDTLMISRTPEVTCVVVDVSHEDPEVKFNWYVDGVEVHNAKTKPREEQYNSTYRVVSVLTVLHQDWLNGKEYKCKVSNKALPAPIEKTISKAKQPREPQVYTLPPSRDELTKNQVSLTCLVKGFYPSDIAVEWESNGQPENNYKTTPPVLDSDGSFFLYSKLTVDKSRWQQGNVFSCSVMHEALHNHYTQKSLSLSPGK
light: not shown
A word on the Kd: it is the constant that tells how readily two partners part at equilibrium. In turn, B1 had an AUC (RBD bind.) in test [1] of 13. The results for the ELISA OD in test [2], in test [3] and in [4] were 0.1 OD, 0.1 OD and 3.5 OD, respectively. Moreover, the log10 ΔgMFI in test [5] was determined as 4. For the same molecule, the Kd in [6] turned out to be 162 nM. For the same molecule, the results for the AUC (RBD block.) in [7] and in [8] were 283 and 141, respectively. Also, the S-Flow (%) in [9] was determined as 95%. Moreover, the S-Flow (MFI) in test [9] turned out to be 270000 MFI. For the same molecule, the % inhibition (competition) in [10] stood at 43; in [11], 67; in [12], 61; in [13], 80; in [14], 77.

B2: Cv2.3235 (recombinant human IgG1) (antibody)
heavy: B1 heavy with S31R, L50V, Y58F, L99G, N100D, A111T
light: DIQMTQSPSFLSASVGDRVTITCRASQGISSFLAWYQQKPGKAPKLLIYGASTLQSGVTSRFSGSGSGTEFTLTISSLQPEDFATYYCQRLDSYPPITFGQGTRLEIKRTVAAPSVFIFPPSDEQLKSGTASVVCLLNNFYPREAKVQWKVDNALQSGNSQESVTEQDSKDSTYSLSSTLTLSKADYEKHKVYACEVTHQGLSSPVTKSFNRGEC
As for B2, the AUC (RBD bind.) in test [1] is 13. Moreover, the ELISA OD in [2] is 0.2 OD; in [3] it was 0.2 OD; in test [4] it was 3.9 OD. This molecule also had a log10 ΔgMFI in test [5] of 4. Also, the Kd in test [6] came out at 280 nM. For the same molecule, the AUC (RBD block.) in test [7] came to 229; in test [8] it was 114. In addition, the S-Flow (%) in test [9] came out at 97%. In test [9], this molecule displayed a S-Flow (MFI) of 170000 MFI. Further, the % inhibition (competition) was found to be 14 in [10]; 37 in [11]; 37 in test [12]; 65 in test [13]; 47 in test [14].

B3: COV2-2130 (antibody, V domains shown)
VH: EVQLVESGGGLVKPGGSLRLSCAASGFTFRDVWMSWVRQAPGKGLEWVGRIKSKIDGGTTDYAAPVKGRFTISRDDSKNTLYLQMNSLKTEDTAVYYCTTAGSYYYDTVGPGLPEGKFDYWGQGTLVTVSS
VL: not shown
As to B3, the AUC in test [15] turned out to be 3. This molecule had a % binding inhibition in test [16] of 96%.

B4: Cilgavimab (antibody, V domains shown)
VH: B3 VH
VL: not shown
As for B4, the OD405nm in test [17] is 3.2.

B5: ADG-2 (antibody, V domains shown)
VH: EVQLVESGGGLVKPGGSLRLSCAASGFTFSSYYMNWVRQAPGKGLEWVSSISEDGYSTYYPDSLKGRFTISRDSAKNSLYLQMNSLRADDTAVYYCARDFSGHTAWAGTGFEYWGQGTLVTVSS
VL: QSVLTQPPSVSGAPGQRITISCTGSSSNIGAGYDVHWYQQLPGTAPKLLIYGSSSRNSGVPDRFSGSKSGTSASLAITGLQAEDEADYYCQSYDSSLSVLYTFGTGTKVTVL
Turning to B5, the AUC in [15] worked out at 3. The same molecule yielded a % binding inhibition in test [16] of 94%.

B6: Adintrevimab (antibody, V domains shown)
VH: B5 VH
VL: B5 VL
B6 had an OD405nm in test [17] of 3.3. The log10 ΔgMFI in test [18] is 4.4.

B7: Cv2.1353 (recombinant human IgG1) (antibody)
heavy: EVQLVESGGGLVQPGGSLRLSCAASGVTVSSNYMNWVRQAPGKGLEWVSVIYSGGSTFYADSVKGRFIISRDNSKNTLYLQMNSLKTEDTAVYYCARDLGPMGFDIWGQGTMVTVSSASTKGPSVFPLAPSSKSTSGGTAALGCLVKDYFPEPVTVSWNSGALTSGVHTFPAVLQSSGLYSLSSVVTVPSSSLGTQTYICNVNHKPSNTKVDKKVEPKSCDKTHTCPPCPAPELLGGPSVFLFPPKPKDTLMISRTPEVTCVVVDVSHEDPEVKFNWYVDGVEVHNAKTKPREEQYNSTYRVVSVLTVLHQDWLNGKEYKCKVSNKALPAPIEKTISKAKQPREPQVYTLPPSRDELTKNQVSLTCLVKGFYPSDIAVEWESNGQPENNYKTTPPVLDSDGSFFLYSKLTVDKSRWQQGNVFSCSVMHEALHNHYTQKSLSLSPGK
light: DIQMTQSPSFLSASVGDRVTITCRASQGISSYLAWYQQKPGKAPKLLIYAASTLQSGVPSRFSGSGSGTEFTLTISSLQPEDFATYYCQQLNSDPPVTFGPGTKVDIKRTVAAPSVFIFPPSDEQLKSGTASVVCLLNNFYPREAKVQWKVDNALQSGNSQESVTEQDSKDSTYSLSSTLTLSKADYEKHKVYACEVTHQGLSSPVTKSFNRGEC
Regarding B7, the figures for the AUC (RBD bind.) in test [1] and in test [19] were 12 and 13, respectively. For the same molecule, the ELISA OD was determined as 0.1 OD in test [2], 0.1 OD in test [3] and 3.5 OD in [4]. The log10 ΔgMFI in [5] was found to be 4. Besides, the dissociation constant (Kd) in test [6] is 2.24 nM; in [20], under 0.001 nM. Moreover, the AUC (RBD block.) was determined as 315 in test [7] and 158 in [8]. This molecule displayed a S-Flow (%) in test [9] of 95%. In [9], this molecule gave a S-Flow (MFI) of 270000 MFI. Moreover, the % inhibition (competition) in test [10] was 62; in [11] it was 74; in [12], 74; in test [13], 80; in test [14], 78.
